According to the DeepSol protein solubility set:

Test: soluble on expression in E. coli; label from the status in PepcDB or PDB records

Soluble on expression in E. coli, not soluble:
MAHHHHHHMGLYKSIYFVDGGCCAVKFNAITGLKNRTYGEGANFAIPFLETPVVFDIRNKPTEVLTATGSRDLQTVNLAVRVLYQPHVSALPDIYRNVGMEYAETVLPSLVNEIIRAVIAQFNASDLLVKRPEVSNRIGVMLAERAKRFHIDITDVSITQMSFGKEYTSAVEAKQVAQQMAERAKWRVEQAEQEKEGAILLAKGEAEAAKLIGMAVQKNPAFITLRSLEASRTIADLMRQKGSGSFYIDSDTLSLNTQTIGH
MAHHHHHHMGQDQSRAKACQLGQAETGGTDRSVSAGSASAAPWEAPVSLAGVEGFQVVRLLPDSPAHKAGLIPFFDIVTALDKVLLESEGKAALSFFKSYVANHRDQPVCFTTFNLYSRTYRDVYCVPSDEWGGGGLLGCSIEWTRADACPERCVHVVDVLEGSPAACSTELQANRDYIIGMQTVQETLITLIKSQKDFYCRLEAWHEEQRWALERKQFFPNERVEVPHVLLFLVYNSESNTIEEVEVEMGTNPEAAVGISVATGLLHIIPSVATADLAVGASLPVMSKFASVGHSVVTPTRAQQQEHQLLQDVSLTPAVGAAPQPREQSQESTGSAQPLPSLPLPQEAHARCAVVDSPEVHTMTNPHEPPMNSCPQPCPPRPQLQQQLTEAALYSMPSLASFNVAPPPRHDAAGGTAAAAVEMGQKPFNPFAEEASPDYDVLEGAPLAHEGVMAAEHHLGQHAPTMEQPYSSSYPPLSSQSPPLSGSLPAQMNGSHNPATALPSYSAPPPPPQQLHVTTMPTFSSQRMPPPLQFPVFPGAAAAKRAPA
MAHHHHHHMHLKECPPASSVGWLRPSLTIYMFGSKSLALSSAVFVLDCFTMGRKQRLLSAVVNVPLTLRLMLYFSASYKGEEPRLPPSTCVLGSSQGNNFLLLPGAFAESGCTTFFPGREGLMSELQDELWLQLPSRLLILARLDLANFLFAVVGRLPNSGINLFQQRPPSSLAVLPKRCMGMTLVALTTL
MAHHHHHHMHRNIHGGTASATIANSALVSPPPHTTIPPLPAGMDPTYYALSLLRRRRLEECIAVSTQYLAVFNEKMRLTSSGTQKQADGVDEPLWFIQTRALITQDWFDELDVDNDGVDEVLLDGEQNISSTAHRPGTSLQRKDAPTGTTIPTGMAQRQGTARPISSRYGYVRPGTQSRNRPGTMSIRPITSRMMRIGTASLQAVPGGPHIDVRKLNLEKYGRTKPIVARILCDFLLHVEHRPRMVLELGAIALEQQPKDWWWMSRMGQAYYRLGLLREAERMFKAALTIQENVADVMRLARVFTKMDQPLKALDLLSEASKKNPMDHHLLLHMARLYDQLQDAEKSCQLYRRVLQLDSSNMESIACIAAYMFYEKKQPEIALRLYRRLLQMGVQTTELWNNLGLCCFYSSQYDIALSCLQRAVAISTEDETLADVWYNIGHIGIGTGDLGLAHRAFKVALGANPRHAEALNNLAVLNLNIGQVDQAMNDLAMAIEVSPEQHEPLYNFALLAFKAGNFEKSYKLLTQALEACPDHPESALLQATLRKSLATL
MAHHHHHHMHRSLLRCALPGEPMLESYRSGVLRCLRCHLGAMRPDFPVGSAATEVAALASTATTPLTCSRRAFRQQGAAHPNTPDATEAAELEKDWQALKTYGMIGGFALLCVATLWYGSRQAKQRYFGAEGSARVSVETRGRPALGGPFVLVNTKGEPVSQAEFLGSWAFFYFGFTHCPEICPVELNRMSHVVDAVRAARPQERIAPLFVSCDPRRDSLEAIDEYLSVFHPDFIGLVGTPKQVNDACRSYRIYYSIPTDEDAAQEDYLIDHSIAIFLFDPQGRFVDFFGNRYDEREITEKVLHYMSEYAKDPTWTNW
MAHHHHHHMHSAIRFSGSSSRSTSSSMEVASAAAEPPLSVSSIPRRRSADRDDALSLLEPAVRLPTSTTSKASALSQSSLRSGSHPSAAVYGDNPGSAHTASSSYTRKGDNGDALLHQPPGNPQTRVPSSFAATVNTRASEASSHSARGRAGSSRRDNLDPAAPQSRTATQPPLTHPGSVFANIPWIPPPPIYGTPLPDSSNMNRHYAYYYDPRGATLRAPFCYPDEVPLRAQEHHSDVSGAEWPKPSDLPLPSVFPMPPHVLPQLSLPAVSAPTAEAAARGMVAAPHAWAIPPPVLYPPPPPPPWWFYGTHPLPLPASSSGSSASSTGSSRHASSSSPVSARSTTRPSRHPSANAARPHAEAAAPSRHGVAVPAGSVETPVAAASRGDAGGGHAAKKPSVASSGSRYAAGHTVGTGRAARRSMGSLSASSATTSPWSATTTTAHSDLPQRVERRVYASSGSGSSEMQRSATGQTVQVAPRRTNVAQCVPPDQLQVYGDDVVQERGYSSVMTRMKHAVSAAEAYLEKMEHLYRRLRSRYEEVVMSPGKVTRYGADITADEGVEEKRHRRTAPAATTRATRGPPEKGLLHPPERPFSRQTHLQPTAPLPHAERPVSPALSAAQPSAVEPSPPLSSSSSATSATSLRRELHLLESQWQRLEELKRHGGGGTTTAVSMPAALSPSTATSTAGEDPFTNRRFLQLIKDRKHLLTSAT
MAHHHHHHMHVSSAAYTRAYEWQRALNSCTGDFSSSLARCLPLRALCRRPNNVPRTLTHTSKHPHPLLLSHPRLPLSHAARTRAPPPSRCSRSTLMSVPYEEKAFPPL

Soluble on expression in E. coli, soluble:
MAHHHHHHMGNGASVGENRHSQLFQQGYKSLQEGRYTYAEIYYDQAIERHEGHSFWTRLDDLIEWERRDKAGQKGTDAKQKTAYRDGGQEEAAFPEVRKDSLKEENEVNVEMGEAAGVGGSGKIEIPLDSRLADVVDYLVLRADIAESYMAEGRYEEATPHMDFLSSHTRVMLKFLQIARMTKAEESANSSNPLEGSTADAGADNAGGGNRRAHQGFMMVSDVERDSILDCFEQFLRMHWVSAMANSVFIVSERFKKGKSEKKHKKELDTAVVACAKIQEELYNVAKRRARSLSNSVVLSFLEGIMEELDAESSTTSITNERMGTANGKTRTNTLFEEQNNRSTGNRSANEIDMLTDRDECPIKVHLQMVYDRRSLCREVPAPQQAPTLRYITWIDDEIRRVVPGTNYNLEIQCGMVDEKRKKQLQKRSLKFAAQRNCNYNDRVLLGKSFDEENALLLFPVFLIQADVQFELGAATKGINALDIVDKLSTQLYGVGSLERQSIMRSVMESRKRGGSLFMMFED
MAHHHHHHMGTLEAGQQGPGSMSKLTVVASPLAPEAVGAYSQAIICNGMVYCSGQIGLDRKTGDFAGKTIEEQSKQVMTNLKYVLEEAGSSMDKVVKTTCLLADIKDFGVFNGIYAEAFGNHKPARACFAAAALPKGALVEVECIATL
MAHHHHHHMGTLEAQTQGPGSMKQPTAVIFDWYNTLIDTSINIDRTTFYQVLDQMGYKNIDLDSIPNSTIPKYLITLLGKRWKEATILYENSLEKSQKSDNFMLNDGAIELLDTLKENNITMAIVSNKNGERLRSEIHHKNLTHYFDSIIGSGDTGTIKPSPEPVLAALTNINIEPSKEVFFIGDSISDIQSAIEAGCLPIKYGSTNIIKDILSFKNFYDIRNFICQLINI
MAHHHHHHMGTLEAQTQGPGSMNVLVIGSGGREHSMLHHIRKSTLLNKLFIAPGREGMSGLADIIDIDINSTIEVIQVCKKEKIELVVIGPETPLMNGLSDALTEEGILVFGPSKAAARLESSKGFTKELCMRYGIPTAKYGYFVDTNSAYKFIDKHKLPLVVKADGLAQGKGTVICHTHEEAYNAVDAMLVHHKFGEAGCAIIIEEFLEGKEISFFTLVDGSNPVILGVAQDYKTIGDNNKGPNTGGMGSYSKPNIITQEMEHIIIQKIIYPTIKAMFNMNIQFRGLLFAGIIIKKNEPKLLEYNVRFGDPETQSILPRLNSDFLKLLSLTAKGKLGNESVELSKKAALCVVVASRGYPGEYKKNSIINGIENIEKLPNVQLLHAGTRREGNNWVSDSGRVINVVAQGENLASAKHQAYAALDLLDWPDGIYRYDIGSCAL
MAHHHHHHMGVGFQSKKLQNFCHSGAGEMCALENCIPRWGSFPCNAPGLTPVYELSSFENVELPLIFQKSNIGDLLASTSDSVGQLNGFQARHSNTEGIKSQVSYTSVALSTTNRENLFGWVDCAALPLCSSSTAGASILLVTLLTRESRGKSCMCILDDLVCQLSNGPFNWGCGGDCHDLISISLPSEPRNHAACPIILPIAKLSRKEIWLREAAPKMDVETIIYEGDNQQHLVDDVANGTNAGSCAVMEAGCRPETALGPENVKYGDNESVTQCEVTVDITPSTEPSARCLHFSECTTPVSSNRSFMEPIPLSNMESKALRCRKFDGTSYEVLRRRAHSDALSLILKKYSEHLERVSQTSGRRGLDAHC
